Laboratory results as given in the RNAGym collection of RNA variant scans (doi:10.1073/pnas.2313332121).

B1: TPR t1 (parent)
chain: GACCAAUCUGCCCUCAGAGCUCGAGAACAUCUUCGGAUGCAGAGGAGGCAGGCUUCGGUGGCGCGAUAGCGCCAACGUCCUCAACCUCCAAUGCAUCCCACCACAUGAUGAUGCCUGAAGAGCCUUGGUUUUUUG

Variants of: B1
Test: polymerase ribozyme fitness, log enrichment relative to wild type (log ratio); higher = more active; in vitro selection for triplet polymerase activity
In short: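 A single round of triplicate in vitro selection, including frozen incubation at −7 °C, was applied to PCR-built, transcribed mutant libraries of each subunit of a heterodimeric triplet polymerase ribozyme. Illumina sequencing of input and output libraries retained genotypes with ≥10 input reads and ≥1 read per output. Fitness is the base-2 logarithm of genotype enrichment divided by wild-type enrichment, from inverse-variance-weighted replicate averages.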

Row | Variant | polymerase ribozyme fitness (log ratio)
1 | GACCAAUCUGCCCUCAGAGCUCGAGAACAUCUUCGGCUGCAGGGGAGGCAGGCUUCGGUGGCGCGAUAGCGCCAACGUCCUCAACCUCCAAUGCAUCCCACCACAUGAUGAUGCCUGAAGAGCCUUGGUUUUUUG [A37C A43G] | -2.56
2 | GACCAAUCUGCCCUCAGAGCUCGAGAACAUCUUCGGCUGCAGAGGAGGCAGGCUUCGGUGGCGUGAUAGCGCCAACGUCCUCAACCACCAAUGCAUCCCACCACAUGAUGAUGCCUUAAGAGCCUUGGUUUUUUG [A37C C64U U87A G117U] | -3.55
3 | GACCAAUCUGCCCUCAGAGCUCGAGAACAUCUUCGGCUGCACAGGAGGCAGGCUUCGGUGGCGCGAUAGCGCCAACGUCCUCAACCUCCAAUGCAUCCCACCACAUGAUGAUGCCUGAAGAACCUUGGUUUUUUG [A37C G42C G122A] | -2.78
4 | GACCAAUCUGCCCUCAGAGCUCGAGAACAUCUUCGGCUGCAGAGGAGGCAGGGUUCGGUGGCGCGAUAGCCCCAACGUCCUUAACCUCCAAUGCAUCCCAACACAUGAUGAUGCCUGAUGAGCCUUGGUUUUUUG [A37C C53G G71C C82U C101A A119U] | -2
5 | GACCAAUCUGCCCUCAGAGCUCGAGAACAUCUUCGGCUGCAGAGGAGGCAGGUUUCGGUGGCGCGAUAGCGCCAACGUCCUCAACCUCCAAUGCAUCCCACCACAUGAUGAUGCCUGAAGAGCCUUGGUUUUUUG [A37C C53U] | -0.73
6 | GACCAAUCUGCCCUCAGAGCUCGAGAACAUCUUCGGCUGCAGAGGAGGCAGGCUUCGGUGGCGCGAUAGCGCCAACGUCCUCAACCUCCAAUGCAUUCCACCACAUGAUGAUGCCUGAAGAGCCUUGGUUUUUUG [A37C C97U] | -1.69
7 | GACCAAUCUGCCCUCAGAGCUCGAGAACAUCUUCGUAUGCAGAGGAGGCAGGCUUCGGUGGCGCGAUAGCGCCAACGCCCUCAACCUCGAAUGCAUCCCAACACAUGAUGAUGCCUGAAGAGCCUUGGUUUUUUG [G36U U78C C89G C101A] | -4.13
8 | GACCAAUCUGCCCUCAGAGCUCGAGAACAUCUUCGGCUGCAGAGGAGGCAGGCUUCGGUGGCGCGAUAGCGCAAACGUCCUCAACCUCCAAUGCAUCCCACCACAUGAUGAUGCCUGUAGAGCCGUGGUUUUUUG [A37C C73A A118U U125G] | -0.0605
9 | GACCAAUCUGCCCUCAGAGCUCGAGAACAUCUUCGUAUGCAGAGGAGGCAGGCUUCGGUGGCGCGAUAGCGCCAACGUCCUCAACCUCCAAUGCAUCCCACCACAUGAUGAUGCCUGAAGAGCCAUGGUUUUUUG [G36U U125A] | -1.4
10 | GACCAAUCUGCCCUCAGAGCUCGAGAACAUCUUCGGCUGCAGAGGAGGCAGGCUUCGGUGGCGCGAUAGCGCCAACGUCCUCAACCUCCAAUGCAUCCCACAACAUGAUGAUGCCUGAAGAGCCUUGGUUUUUUG [A37C C102A] | -2.31
11 | GACCAAUCUGCCCUCAGAGCUCGAGAACAUCUUCGGCUGCAGAGGAGGCAGGCUUCGGUGGCGCGAUAGCGGCAACGUCCUCAACCUCCAAUGCAUCCCACCACAUGAUGAUGCCUGAAGAGGCUUGGUUUUUUG [A37C C72G C123G] | 0.506
12 | GACCAAUCUGCCCUCAGAGCUCGAGAACAUCUUCGGCUGCAGAGGAGGCAGGCUUCGGUGGCGCGAUAGCGCCAAAGUCCUCAACCUCCAAUGCAUCCCACCACAUGAUGAUGCCUGAAGAGCCUUGGUUUUUUG [A37C C76A] | -1.6
13 | GACCAAUCUGCCCUCAGAGCUCGAGAACAUCUUCGGCUGCAGAGGAGGCAGGCUUCGGUGGCGCGAUGGCGCCAACGCCCUUAACCUCCAAUGCAUCCCACCACAUGAUGAUGCCUGAAGAGCCUUGGUUUUGUG [A37C A68G U78C C82U U133G] | -3.87
14 | GACCAAUCUGCCCUCAGAGCUCGAGAACAUCUUCGUAUGCAGAGGAGGCAGGCUUCGGUGGCGCGAUAGCGCCAACGUCCUCAACCUCCAAUGCAUCCCACCACAUGAUGAUGCCUGAAGAGCCUUGGUCUUUUG [G36U U130C] | -0.893
15 | GACCAAUCUGCCCUCAGAGCUCGAGAACAUCUUCGGCUGCAGAGGAGGCAGGUUUCGGUGGCGCGAUAGCGCCAACGUCCGCAACCUCCAAUGCAUCCCACCACAUGAUGAUGCCUGAAGAGCCUUGGUUUUUUG [A37C C53U U81G] | -2.81
16 | GACCAAUCUGCCCUCAGAGCUCGAGAACAUCUUCGGCUGCAGAGGAGGCAGGCUUCGGUGGCGCGAUAGCGCCAACGUCCUCAACCUCUAAUGCAUCCCACCACAUGAUGAUGCGUGAAGAGCCUUGGUUUUUUG [A37C C89U C115G] | -3.26
17 | GACCAAUCUGCCCUCAGAGCUCGAGAACAUCUUCGGCUGCAGAGGAGGCAGGCUUCGGUGGCGCGAUAGGGCCAACGUUCUCAACCUCCAAUGCAUCCCACCACAUGAUGAUGCCUGAAGUGCCUUGGUUUUUUG [A37C C70G C79U A121U] | 0.503
18 | GACCAAUCUGCCCUCAGAGCUCGAGAACAUCUUCGGCUGCAGAGGGGGAAGGCUUCGGUGGCGCGAUAGCGACAACGUCCUCAACCUCCAAUGCAUCCCACCACAUGAUGAUGCCUGAAGAGCCUUGGUUUUUUG [A37C A46G C49A C72A] | -0.663
19 | GACCAAUCUGCCCUCAGAGCUCGAGAACAUCUUCGUAUGCAGAGGAGGCAGGCUUCGGCGGCGCGAUAGCGCCAACGCCCUCAACCUCCAAUGCAUCCCAUCACAUGAUGAUGCCUGAAGAGACUUGGUUUUUUG [G36U U59C U78C C101U C123A] | -1.25
20 | GACCAAUCUGCCCUCAGAGCUCGAGAACAUCUUCGGCUGCAGAGGAGGCAGGCUUCGGUGGCGCGAUAGCGUCAACGUCCUCAACCUCCAAUGCAUCCCACCACAUGAUGAUGCCUGAAGAGCCUUGGUUUUUUG [A37C C72U] | 0.162
21 | GACCAAUCUGCCCUCAGAGCUCGAGAACAUCUUCGGCUGCAGAUGAGGCAGGCUUCGGUGGCGCGAUAGCGCCAACGUCCUCAACCUCCAAUGCAUCCCACCACAUGAUGAUGCCUGAAGAGCCUUGGUUUUGUG [A37C G44U U133G] | -2.6

Row | Variant | polymerase ribozyme fitness (log ratio)
22 | GACCAAUCUGCCCUCAGAGCUCGAGAACAUCUUCGGCUGCAAUGGAGGUAGGGUCCGGUGGCGCGAUAGCGCCAACGUCCUCAACCUCCAAUGCAUCCCACCACAUGAUGAUGCCUGAAGAGCCUUGGUUUUUUG [A37C G42A A43U C49U C53G U55C] | -4.27
23 | GACCAAUCUGCCCUCAGAGCUCGAGAACAUCUUCGGCUGCAGAGGAGGUAGGCUUCGGUGCCGCGAUAGCGCCAACGUCCUCAACCUCCAAUGCAUCCCACCACAUGAUGAUGCCUGAAGAGCCUUGGUUUUUUG [A37C C49U G61C] | -3.38
24 | GACCAAUCUGCCCUCAGAGCUCGAGAACAUCUUCGGCUCCAGAGGAGGCAGGCUUCGGUGGCACGAUAGCGCCAACGUCCUCAACCUCCAAUGCAUCCCACCACAUGAUGAUGCCUGAAGAGCCUUGGUUUUUUG [A37C G39C G63A] | -4.27
25 | GACCAAUCUGCCCUCAGAGCUCGAGAACAUCUUCGGCUGCAGAGCAGGCAGGCUUCGGUGGCGCGAUAGCGCCAACGUCCUCAACCUCCAAUGCAUCCCACCACAUGAUGGUGCCUGAAGAGCCUUGGUUUUUUG [A37C G45C A111G] | -2.91
26 | GACCAAUCUGCCCUCAGAGCUCGAGAACAUCUUCGGCUGCAGCGGAGGCAGGAUUCGGUGGCGCGAUAGCCCCAACGUCCUCAACUUCCACUGCAUCCCACCACAUGAUGAUGCCUGAAGAGCCUUGGUUUUUUG [A37C A43C C53A G71C C86U A91C] | -6.26
27 | GACCAAUCUGCCCUCAGAGCUCGAGAACAUCUUCGGCUGCAAUGGAGGCAGGCUUCGGUGGCGCGAUAGCGCCAACGUCCUCAACCUCCAAUGCAUCCCACCAAAUGAUGAUGCCUGAAGAGCCUUGGUUUUUUG [A37C G42A A43U C104A] | -5.34
28 | GACCAAUCUGCCCUCAGAGCUCGAGAACAUCUUCGGCUGCAGAGGAGGCAGGCUUUGGUGGCGCGAUAGCGCCAACGUCCUCAACCUCCAAUGCAUCCCACCACAUGAUGAUGCCUGAAGAGCCUUGGUUUUUUG [A37C C56U] | 0.093
29 | GACCAAUCUGCCCUCAGAGCUCGAGAACAUCUUCGGCUGCAGAGGAGGCAGGCUUCGGUGGCGCGAUAGCGCCAACGUCCUCAACCUCCAAUGCAUCCCACCACAUGAUGAUGGCUGAAAAGUCUUGGUUUUUUG [A37C C114G G120A C123U] | -5.25
30 | GACCAAUCUGCCCUCAGAGCUCGAGAACAUCUUCGGCUGCAGAGGAGGCAGGCUUCGGUGGCGCGAUAGCGCCAACGUCCUCAACCUCCACUGCAUCCCACCACAUGAUGAUGCCUGAAGAGCCUUGGUUUUUUG [A37C A91C] | -0.946
31 | GACCAAUCUGCCCUCAGAGCUCGAGAACAUCUUCGGCUGCAGAGGAGGCAGGCUUCGGUGGCGCGAUAGCGCCAACGUCCUCAACCUCCAAUGCAUCCCACCACAUGAUGAUGCCUGAAGAGACUUGGUUUUUUG [A37C C123A] | -0.297
32 | GACCAAUCUGCCCUCAGAGCUCGAGAACAUCUUCGUAUGCAGAGGAGGCAGGCUUCGGUGGCGCGAUAGCGCCAACGUCCUCAACCUCCAAUGCAUCCCACCACAGGAUGAUGCCUGAAGAGCCUUGGUUUUUUG [G36U U106G] | -4.55
33 | GACCAAUCUGCCCUCAGAGCUCGAGAACAUCUUCGGCUGCAGAGGAGGCAGGCUUCGGUGGCGCGAUAGUGCCAACGUCCUCAAUCUCCAAUGCAUCUCACCACAUGAUGAUUCCUGAAGAGCCUUGGUUUUAUG [A37C C70U C85U C98U G113U U133A] | -5.51
34 | GACCAAUCUGCCCUCAGAGCUCGAGAACAUCUUCGGCUGAAGAGGAGGCAGACUUCGGUGCCGCGAUAGCGCCAACGUCCUCAACCUCCAAUGCAUCCCACCACAUGAUGCUGCCUGAAGAGCCUUCGUUUUUUG [A37C C40A G52A G61C A111C G127C] | -5.24
35 | GACCAAUCUGCCCUCAGAGCUCGAGAACAUCUUCGGCUGCAGAGGAGGAAGGCUUCGGUGGCGCGAUAGCGCCAACGUCCUCAACCUCCAAUGCAUCCCACCAUAUGAUGAUGCCUGAAGAGCCGUGGUUUUUUG [A37C C49A C104U U125G] | -1.1
36 | GACCAAUCUGCCCUCAGAGCUCGAGAACAUCUUCGGCUGCAGAUGAGGCAGGCUUGGGUGGCGCGAUAGCGCAAACGUCCUCAACUUCCAAUGCAUCCCACCACAUGAUGAUGCCUGAAGAGCCUUGGUUUUUUG [A37C G44U C56G C73A C86U] | -5.78
37 | GACCAAUCUGCCCUCAGAGCUCGAGAACAUCUUCGGCUGCAGAGGAGGAAGGCUUCGGUGGCGCGAUAGCGCCAAGGUCCUCAACCUCCAAUGCAUCCCACCACAUGAUGAUGCCUAAAGAGGCAUGGUUUUUUG [A37C C49A C76G G117A C123G U125A] | -1.24
38 | GACCAAUCUGCCCUCAGAGCUCGAGAACAUCUUCGGCUGCAGAGGAGGCAGGCUUCGGUGGCGCGAUAGCGCCAACGUCCUCAACCUCCAAUGCAUCUCACCACAUGAUGAUGCCUGAAGAGCCUUGGUUUUUUG [A37C C98U] | -1.41
39 | GACCAAUCUGCCCUCAGAGCUCGAGAACAUCUUCGGCUGCAGAUGAGGCAGGCUUCGGUGGAGCGAUAGCGCCAACGUCCUCAACCUCCAAUGCAUCCCACCACAUGAUGAUGCCUGAAGAGCCUUGGUUUUUUG [A37C G44U C62A] | -2.41
40 | GACCAAUCUGCCCUCAGAGCUCGAGAACAUCUUCGGCUGCAGAGGAGGCAGGGUUCGGUGGAGCGAUAGCGCCAACGUCCUCAACCUCCAAUGCAUCCCACCACAUGAUGAUGCCUGAAGAGCCUUGGUUUUUUG [A37C C53G C62A] | -1.57
41 | GACCAAUCUGCCCUCAGAGCUCGAGAACAUCUUCGUAUGCAGAGGAGGCAGGCUUCGGUGGCGCGAUAGCGCCAACGCCCUCAACCUCCAAUGCAUCCCACCACAUGAUGAUGCCUGAAGAGCCUUGGUUUUUUG [G36U U78C] | -1.61
42 | GACCAAUCUGCCCUCAGAGCUCGAGAACAUCUUCGGCUGCAGAGGAGGCAGGCUUCGGUGGCGCGAUAGUGCCAACGUCCUCAACCUCCAAUGCAUCCCACCACAUGAUGAUGCCUGAAGAGCCUUGGUUUUUUG [A37C C70U] | -0.649
